One molecule from paper PMC8335659 can be followed below.

In this assay the target is GST-STG^9D. The experiment in a line: pull-down; purified GST fusion of the STG C terminus incubated 1 h at 4 °C with lysate of HEK293T cells expressing FLAG-tagged μ2 or μ3, with or without 500 μM MPR^AA or MPR^DD peptide; glutathione Sepharose; blots with anti-FLAG and anti-GST.

B1: FLAG-tagged μ3 (natural protein)
chain: MIHSLFLINCSGDIFLEKHWKSVVSQSVCDYFFEAQEKAADVENVPPVISTPHHYLISIYRDKLFFVSVIQTEVPPLFVIEFLHRVADTFQDYFGECSEAAIKDNVVIVYELLEEMLDNGFPLATESNILKELIKPPTILRSVVNSITGSSNVGDTLPTGQLSNIPWRRAGVKYTNNEAYFDVVEEIDAIIDKSGSTVFAEIQGVIDACIKLSGMPDLSLSFMNPRLLDDVSFHPCIRFKRWESERVLSFIPPDGNFRLISYRVSSQNLVAIPVYVKHSISFKENSSCGRFDITIGPKQNMGKTIEGITVTVHMPKVVLNMNLTPTQGSYTFDPVTKVLAWDVGKITPQKLPSLKGLVNLQSGAPKPEENPNLNIQFKIQQLAISGLKVNRLDMYGEKYKPFKGVKYVTKAGKFQVRT
The molecule B1 returned a percent of μ3 pulled down (GST-STG^9A = 100%) of 21%.
